Source: publication PMC8800040

Target: aflibercept (human)
Test: SPR

human VEGF-A165 (ligand)
Kd: 0.0147 nM
kon: 1.16e+07 M⁻¹ s⁻¹
